Measured values: patent publication US20220387487A1, “COMPOSITIONS AND METHODS FOR TREATMENT OF CANCER” (Aleta Biotherapeutics Inc., priority 2019, published 2022)

Test system: FMC63
Assay: CD19 variant binding to anti-CD19 antibody FMC63 (score)
Details: Table 1A, CD19 single mutants (positions of SEQ ID NO:2)

Chain of FMC63 (as listed by the source): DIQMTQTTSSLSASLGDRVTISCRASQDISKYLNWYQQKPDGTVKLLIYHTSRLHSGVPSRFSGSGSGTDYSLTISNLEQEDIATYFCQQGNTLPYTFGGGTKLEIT
Chain of FMC63 (as listed by the source): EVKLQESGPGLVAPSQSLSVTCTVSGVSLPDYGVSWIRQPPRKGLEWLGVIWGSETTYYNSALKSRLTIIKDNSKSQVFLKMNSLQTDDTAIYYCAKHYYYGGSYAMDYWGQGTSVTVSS

Molecule | FMC63 Binding Score
W264S: CD19 variant (protein) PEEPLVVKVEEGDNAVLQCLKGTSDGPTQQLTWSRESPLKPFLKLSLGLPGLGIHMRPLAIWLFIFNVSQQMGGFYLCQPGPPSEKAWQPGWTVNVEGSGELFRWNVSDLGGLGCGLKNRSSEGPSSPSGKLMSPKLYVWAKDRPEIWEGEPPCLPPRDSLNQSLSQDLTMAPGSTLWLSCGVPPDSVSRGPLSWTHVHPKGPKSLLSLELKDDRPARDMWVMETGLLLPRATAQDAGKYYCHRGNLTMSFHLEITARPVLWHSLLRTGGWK | 7.6 ± .5
L228V: CD19 variant (protein) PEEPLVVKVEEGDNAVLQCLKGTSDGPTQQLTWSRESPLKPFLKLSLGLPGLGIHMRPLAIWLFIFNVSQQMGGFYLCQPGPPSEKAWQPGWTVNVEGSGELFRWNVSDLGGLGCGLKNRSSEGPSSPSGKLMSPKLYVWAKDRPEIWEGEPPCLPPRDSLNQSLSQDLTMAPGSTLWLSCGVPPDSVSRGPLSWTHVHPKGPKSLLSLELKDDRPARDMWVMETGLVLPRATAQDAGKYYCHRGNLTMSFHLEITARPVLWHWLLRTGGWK | 7.4 ± .4
W262A: CD19 variant (protein) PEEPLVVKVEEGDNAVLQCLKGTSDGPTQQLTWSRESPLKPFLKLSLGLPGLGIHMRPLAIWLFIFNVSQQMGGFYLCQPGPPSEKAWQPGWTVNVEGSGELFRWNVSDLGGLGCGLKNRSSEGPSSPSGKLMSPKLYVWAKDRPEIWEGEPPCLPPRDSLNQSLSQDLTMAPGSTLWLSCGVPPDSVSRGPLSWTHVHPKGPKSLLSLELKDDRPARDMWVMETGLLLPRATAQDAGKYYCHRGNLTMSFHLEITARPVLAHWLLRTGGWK | 6.9 ± .5
V260K: CD19 variant (protein) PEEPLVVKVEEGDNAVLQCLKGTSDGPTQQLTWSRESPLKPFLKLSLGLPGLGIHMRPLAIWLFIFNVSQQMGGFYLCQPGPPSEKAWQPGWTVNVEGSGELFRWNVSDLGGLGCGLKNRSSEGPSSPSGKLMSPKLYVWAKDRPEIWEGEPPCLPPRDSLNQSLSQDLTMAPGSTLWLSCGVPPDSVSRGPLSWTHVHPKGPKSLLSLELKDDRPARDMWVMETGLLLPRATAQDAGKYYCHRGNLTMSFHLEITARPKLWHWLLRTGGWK | 7.5 ± .7
M223T: CD19 variant (protein) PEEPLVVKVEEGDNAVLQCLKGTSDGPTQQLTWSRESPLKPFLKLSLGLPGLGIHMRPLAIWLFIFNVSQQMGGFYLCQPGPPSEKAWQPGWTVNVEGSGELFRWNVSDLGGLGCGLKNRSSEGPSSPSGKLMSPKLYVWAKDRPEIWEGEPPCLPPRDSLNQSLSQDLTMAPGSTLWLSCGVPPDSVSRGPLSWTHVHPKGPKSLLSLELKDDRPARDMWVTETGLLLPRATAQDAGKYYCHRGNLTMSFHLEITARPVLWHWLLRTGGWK | 6.7 ± .4
H243T: CD19 variant (protein) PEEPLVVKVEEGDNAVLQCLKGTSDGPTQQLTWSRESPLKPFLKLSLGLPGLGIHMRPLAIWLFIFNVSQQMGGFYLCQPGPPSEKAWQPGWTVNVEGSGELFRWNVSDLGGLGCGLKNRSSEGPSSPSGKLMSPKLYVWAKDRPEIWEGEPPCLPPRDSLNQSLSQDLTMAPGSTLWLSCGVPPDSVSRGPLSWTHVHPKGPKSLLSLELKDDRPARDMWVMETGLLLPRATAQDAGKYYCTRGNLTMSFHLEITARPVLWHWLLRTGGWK | 7.1 ± .9
W262R: CD19 variant (protein) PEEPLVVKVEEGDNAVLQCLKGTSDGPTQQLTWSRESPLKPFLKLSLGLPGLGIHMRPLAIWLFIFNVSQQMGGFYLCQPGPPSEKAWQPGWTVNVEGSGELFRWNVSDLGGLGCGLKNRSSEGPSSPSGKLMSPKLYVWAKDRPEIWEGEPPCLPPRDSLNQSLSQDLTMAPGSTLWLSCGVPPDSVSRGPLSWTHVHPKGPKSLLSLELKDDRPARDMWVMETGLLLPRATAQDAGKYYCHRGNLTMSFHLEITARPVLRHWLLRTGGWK | 7.4 ± .3
W264T: CD19 variant (protein) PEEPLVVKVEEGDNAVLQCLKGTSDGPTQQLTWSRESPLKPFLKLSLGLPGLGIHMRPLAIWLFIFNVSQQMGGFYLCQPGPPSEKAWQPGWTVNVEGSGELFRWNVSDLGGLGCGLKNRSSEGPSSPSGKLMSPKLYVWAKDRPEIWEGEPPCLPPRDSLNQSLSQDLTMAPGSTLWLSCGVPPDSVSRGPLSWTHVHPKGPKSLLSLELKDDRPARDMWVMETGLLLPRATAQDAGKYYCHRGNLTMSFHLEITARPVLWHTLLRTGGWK | 7.2 ± .8
G226T: CD19 variant (protein) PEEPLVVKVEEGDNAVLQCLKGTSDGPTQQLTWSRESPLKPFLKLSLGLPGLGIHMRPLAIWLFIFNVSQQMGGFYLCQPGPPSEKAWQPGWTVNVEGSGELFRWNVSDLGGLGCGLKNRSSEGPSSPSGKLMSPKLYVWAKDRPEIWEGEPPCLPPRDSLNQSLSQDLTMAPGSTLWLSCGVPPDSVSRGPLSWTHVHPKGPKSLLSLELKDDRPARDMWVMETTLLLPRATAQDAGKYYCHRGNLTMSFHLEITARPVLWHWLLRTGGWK | 7.3 ± .6
W262S: CD19 variant (protein) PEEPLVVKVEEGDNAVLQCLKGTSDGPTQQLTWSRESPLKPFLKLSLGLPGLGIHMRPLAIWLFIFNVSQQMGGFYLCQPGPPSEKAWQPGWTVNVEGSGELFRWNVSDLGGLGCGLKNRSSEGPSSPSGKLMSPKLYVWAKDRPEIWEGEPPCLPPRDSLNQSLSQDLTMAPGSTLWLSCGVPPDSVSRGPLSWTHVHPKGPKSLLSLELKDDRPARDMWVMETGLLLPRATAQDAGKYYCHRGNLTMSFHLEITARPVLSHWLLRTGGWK | 7. ± .3
W262P: CD19 variant (protein) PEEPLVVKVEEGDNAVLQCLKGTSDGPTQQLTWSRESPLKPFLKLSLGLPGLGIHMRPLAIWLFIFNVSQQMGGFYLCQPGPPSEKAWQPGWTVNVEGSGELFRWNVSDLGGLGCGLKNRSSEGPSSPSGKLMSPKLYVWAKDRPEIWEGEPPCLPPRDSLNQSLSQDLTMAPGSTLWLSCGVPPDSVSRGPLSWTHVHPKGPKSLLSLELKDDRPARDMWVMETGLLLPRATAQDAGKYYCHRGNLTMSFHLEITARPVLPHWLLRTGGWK | 7.4 ± .7
W264G: CD19 variant (protein) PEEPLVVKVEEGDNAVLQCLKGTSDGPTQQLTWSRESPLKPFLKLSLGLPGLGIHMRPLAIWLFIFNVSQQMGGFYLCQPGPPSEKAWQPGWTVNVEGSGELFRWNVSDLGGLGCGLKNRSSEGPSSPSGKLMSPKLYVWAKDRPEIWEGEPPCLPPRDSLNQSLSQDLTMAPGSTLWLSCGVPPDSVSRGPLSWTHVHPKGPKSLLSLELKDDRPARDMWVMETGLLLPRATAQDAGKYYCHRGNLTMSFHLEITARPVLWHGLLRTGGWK | 7.2 ± .3
W262E: CD19 variant (protein) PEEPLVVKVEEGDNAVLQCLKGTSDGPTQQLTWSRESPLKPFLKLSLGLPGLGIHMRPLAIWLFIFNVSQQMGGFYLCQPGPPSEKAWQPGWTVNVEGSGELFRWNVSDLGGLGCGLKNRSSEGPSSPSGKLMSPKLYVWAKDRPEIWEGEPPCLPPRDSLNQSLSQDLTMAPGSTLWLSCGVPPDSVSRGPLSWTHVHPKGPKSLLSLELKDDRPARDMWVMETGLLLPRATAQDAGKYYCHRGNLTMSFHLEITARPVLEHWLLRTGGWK | 6.9 ± .3
V260R: CD19 variant (protein) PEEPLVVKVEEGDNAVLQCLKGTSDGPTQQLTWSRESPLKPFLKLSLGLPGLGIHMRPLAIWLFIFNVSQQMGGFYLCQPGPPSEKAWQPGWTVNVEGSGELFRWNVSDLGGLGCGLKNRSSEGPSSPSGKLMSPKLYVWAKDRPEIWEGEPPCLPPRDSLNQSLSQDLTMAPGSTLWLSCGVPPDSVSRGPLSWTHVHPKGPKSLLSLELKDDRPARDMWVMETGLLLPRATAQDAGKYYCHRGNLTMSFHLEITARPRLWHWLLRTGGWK | 6.7 ± .3
W264R: CD19 variant (protein) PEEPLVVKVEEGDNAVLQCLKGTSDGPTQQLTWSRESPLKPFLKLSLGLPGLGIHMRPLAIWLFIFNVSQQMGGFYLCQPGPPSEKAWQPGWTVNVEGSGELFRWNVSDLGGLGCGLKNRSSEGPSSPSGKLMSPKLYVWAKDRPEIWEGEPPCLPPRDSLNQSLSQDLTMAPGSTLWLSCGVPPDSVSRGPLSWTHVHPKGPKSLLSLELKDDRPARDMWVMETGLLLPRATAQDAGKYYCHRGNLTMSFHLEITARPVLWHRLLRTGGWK | 6.9 ± .3
W264P: CD19 variant (protein) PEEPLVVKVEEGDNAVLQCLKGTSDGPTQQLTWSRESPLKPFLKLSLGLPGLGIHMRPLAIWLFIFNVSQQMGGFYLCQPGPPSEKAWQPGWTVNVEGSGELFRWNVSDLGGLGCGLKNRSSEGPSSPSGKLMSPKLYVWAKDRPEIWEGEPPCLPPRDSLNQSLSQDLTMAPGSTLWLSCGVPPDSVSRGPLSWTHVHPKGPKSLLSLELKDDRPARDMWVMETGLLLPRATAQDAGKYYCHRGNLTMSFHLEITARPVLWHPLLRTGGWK | 8.6 ± 1.5
W264K: CD19 variant (protein) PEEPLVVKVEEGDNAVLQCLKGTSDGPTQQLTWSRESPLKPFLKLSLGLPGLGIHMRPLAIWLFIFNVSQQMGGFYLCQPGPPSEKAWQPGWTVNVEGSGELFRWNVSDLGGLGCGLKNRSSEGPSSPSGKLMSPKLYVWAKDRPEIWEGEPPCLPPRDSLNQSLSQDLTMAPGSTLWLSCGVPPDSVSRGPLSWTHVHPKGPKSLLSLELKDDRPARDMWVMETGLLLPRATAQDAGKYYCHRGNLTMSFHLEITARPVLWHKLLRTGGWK | 8. ± 1.
W264Q: CD19 variant (protein) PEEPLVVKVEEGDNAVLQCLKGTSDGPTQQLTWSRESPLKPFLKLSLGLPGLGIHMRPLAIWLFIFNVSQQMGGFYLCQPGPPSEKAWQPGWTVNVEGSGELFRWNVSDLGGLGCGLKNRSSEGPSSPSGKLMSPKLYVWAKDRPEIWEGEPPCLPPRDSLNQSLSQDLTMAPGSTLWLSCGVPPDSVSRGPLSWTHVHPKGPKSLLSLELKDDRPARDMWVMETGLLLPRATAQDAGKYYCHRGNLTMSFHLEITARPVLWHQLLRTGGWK | 7.4 ± .8
